Source: patent US20250326842A1 (BEIGENE SWITZERLAND, published 2025)
Where two headings read alike, the source gives them in different places.

T1: human PVRIG recombinant protein (human, UniProt Q6DKI7 41-171)
T1 construct: also called human PVRIG protein; recombinant human antigen PVRIG
T1 sequence: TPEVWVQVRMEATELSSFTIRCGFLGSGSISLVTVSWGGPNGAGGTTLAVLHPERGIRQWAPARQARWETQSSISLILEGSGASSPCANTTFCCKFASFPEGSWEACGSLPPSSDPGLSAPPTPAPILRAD

T2: human PVRIG expressed on cells (human, UniProt Q6DKI7 41-326)
T2 construct: Jurkat cells engineered to express human PVRIG; also called hPVRIG-Jurkat; native human PVRIG
T2 sequence: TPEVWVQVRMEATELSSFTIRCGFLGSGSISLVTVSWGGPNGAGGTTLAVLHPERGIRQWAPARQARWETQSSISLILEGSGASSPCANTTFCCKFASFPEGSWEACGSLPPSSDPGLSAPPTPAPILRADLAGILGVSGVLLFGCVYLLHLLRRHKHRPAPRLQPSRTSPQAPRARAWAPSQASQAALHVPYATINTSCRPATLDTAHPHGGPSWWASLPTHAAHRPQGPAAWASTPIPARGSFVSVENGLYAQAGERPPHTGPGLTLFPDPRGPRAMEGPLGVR

T3: Cyno PVRIG expressed on HEK293 cells (cynomolgus monkey)
T3 construct: also called native Cyno PVRIG
T3 chain: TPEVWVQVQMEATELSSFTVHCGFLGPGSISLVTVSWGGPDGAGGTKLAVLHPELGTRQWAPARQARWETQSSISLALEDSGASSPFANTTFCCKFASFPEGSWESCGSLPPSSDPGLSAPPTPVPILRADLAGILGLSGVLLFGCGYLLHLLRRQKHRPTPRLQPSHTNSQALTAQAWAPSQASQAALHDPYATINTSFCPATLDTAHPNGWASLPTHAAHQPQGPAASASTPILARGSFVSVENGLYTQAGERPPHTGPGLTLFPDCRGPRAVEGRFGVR

T4: hPVRIG-ECD-his (human, UniProt Q6DKI7 41-171)
T4 construct: Acrobiosystems PVG-H52H4; also called hPVRIG-His; human PVRIG-His; not shown: His tag
T4 sequence: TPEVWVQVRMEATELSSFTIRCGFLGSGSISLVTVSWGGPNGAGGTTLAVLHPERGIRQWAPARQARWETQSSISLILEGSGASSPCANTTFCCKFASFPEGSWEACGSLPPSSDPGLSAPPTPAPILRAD


Tests used:
[1] = molecular target: T1, human PVRIG recombinant protein; assay: SPR, antibody captured via anti-human Fc, human PVRIG analyte
Excerpt: For affinity determination, anti-PVRIG antibodies were captured by anti-human Fc antibodies, and used in the affinity assay based on surface plasmon resonance (SPR) technology.

[2] = molecular target: T2, human PVRIG expressed on cells; assay: flow cytometry on Jurkat cells expressing human PVRIG, anti-hFc-647 detection [panel B]
Protocol: (§1) To evaluate the binding activity of anti-PVRIG antibodies to native PVRIG on living cells, Jurkat cells were engineered to express human PVRIG. Jurkat cells expressing PVRIG were seeded in 96 well plates and were incubated with serially diluted anti-PVRIG antibodies. […] EC50 values for dose dependent binding to human native PVRIG were determined by fitting the dose response data to the four-parameter logistic model with GraphPad Prism™.

[3] = molecular target: T3, Cyno PVRIG expressed on HEK293 cells; assay: flow cytometry on HEK293 cells expressing cyno PVRIG, anti-hFc-647 detection [panel B]
Protocol: To evaluate the binding activity of anti-PVRIG antibodies to native Cyno PVRIG on living cells. HEK293 cells were engineered to express Cyno PVRIG. HEK293 cells transfected with Cyno PVRIG were seeded in 96 well plates and were incubated with a serial dilution of anti-PVRIG antibodies. […] EC50 values for dose dependent binding to Cyno native PVRIG were determined by fitting the dose response data to the four-parameter logistic model with GraphPad Prism™.

hPVRIG-ECD-his [4] = molecular target: T4, hPVRIG-ECD-his; assay: blocking ELISA: hPVRIG-His coated, antibody mixed with PVRL2-biotin at 1 ug/mL; % inhibition of PVRL2 binding
[5] = molecular target: T2, human PVRIG expressed on cells; assay: flow cytometry on Jurkat cells expressing human PVRIG, anti-hFc-AF647 detection
Protocol: as §1, with “to native human PVRIG on” for “to native PVRIG on”, “cells expressing human PVRIG were” for “cells expressing PVRIG were”, “96 well plates, and were” for “96 well plates and were”

[6] = molecular target: T3, Cyno PVRIG expressed on HEK293 cells; assay: flow cytometry on 293T cells expressing cyno PVRIG, anti-hFc-AF647 detection
[7] = molecular target: T1, human PVRIG recombinant protein; assay: SPR, antibody captured via anti-human Fc, human PVRIG analyte; remark: listed apart in the source
Excerpt: For affinity determination, antibodies were captured by anti-human Fc antibodies, and used in the affinity determination based on surface plasmon resonance (SPR) technology.

[8] = molecular target: T2, human PVRIG expressed on cells; assay: flow cytometry on Jurkat cells expressing human PVRIG, anti-hFc-AF647 detection; remark: listed apart in the source
Protocol: as §1, with “expressing human” for “expressing”, “plates,” for “plates”

[9] = molecular target: T1, human PVRIG recombinant protein; assay: SPR, antibody captured via anti-human Fc, human PVRIG analyte; remark: listed apart in the source
Excerpt: For affinity determination, antibodies were captured by anti-human Fe antibodies, and used in the affinity assay based on surface plasmon resonance (SPR) technology. […] Rmax represents the maximal feasible SPR signal generated by an interaction between a ligand-analyte pair and is represented in response units (RU).

hPVRIG-ECD-his [10] = molecular target: T4, hPVRIG-ECD-his; assay: blocking ELISA: hPVRIG-His coated, antibody mixed with PVRL2-biotin at 1 ug/mL; % inhibition of PVRL2 binding; remark: listed apart in the source
[11] = molecular target: T1, human PVRIG recombinant protein; assay: SPR, antibody captured via anti-human Fc, human PVRIG analyte; remark: listed apart in the source
Protocol: Chimeric anti-PVRIG antibodies were generated in human IgG1 format and characterized for binding kinetics by surface plasmon resonance (SPR) assays using BIAcore™ T-200 (GE Life Sciences). […] Then a serial dilution of human or Cyno PVRIG protein was flowed over the chip surface and changes in surface plasmon resonance signals were analyzed to calculate the association rates (kₒₙ) and dissociation rates (koff) by using the one-to-one Langmuir binding model (BIA Evaluation Software, GE Life Sciences). The equilibrium dissociation constant (KD) was calculated as the ratio koff/kₒₙ.

hPVRIG-ECD-his [12] = molecular target: T4, hPVRIG-ECD-his; assay: competition ELISA, antibody against PVRL2 on coated human PVRIG
[13] = molecular target: T1, human PVRIG recombinant protein; assay: ELISA, chimeric antibody on recombinant human PVRIG
[14] = molecular target: T2, human PVRIG expressed on cells; assay: FACS on human PVRIG-expressing cells

Row | Binder | IC50 (read off the curve) (hPVRIG-ECD-his [4]) [µg/mL] | EC50 (read off the curve) [5] [µg/mL] | EC50 (read off the curve) [6] [µg/mL] | Kd [7] [nM] | koff [7] [s⁻¹] | kon [7] [M⁻¹ s⁻¹] | EC50 (read off the curve) [8] [µg/mL] | Kd [9] [nM] | koff [9] [s⁻¹] | kon [9] [M⁻¹ s⁻¹] | IC50 (read off the curve) (hPVRIG-ECD-his [10]) [µg/mL] | also measured
1 | BGA383 (antibody, V domains shown, Humanized BGA38) VH: EVQLVQSGAEVKKPGASVKVSCKASGYTFTDYWIYWVRQAPGQGLEWMGTIDTSDAKTSYNQKFRGRVTMTRDTSTSTVYMELSSLRSEDTAVYYCARDFIITVNYPVVDYWGQGTLVTVSS VL: QIVLTQSPATLSLSPGERATLSCSAGSSVNYMHWFQQKPGQAPRLLIYSTSNLASGVPARFSGSGSGTDYTLTISSLEPEDFAVYYCQQRSSLPFTFGQGTKLEIK |  |  |  |  |  |  |  |  |  |  |  | Kd [1]: 0.0998 nM; koff [1]: 0.000649 s⁻¹; kon [1]: 6.51e+06 M⁻¹ s⁻¹; EC50 (read off the curve) [2]: ~0.03 µg/mL; EC50 (read off the curve) [3]: ~0.04 µg/mL
2 | BGA502 (antibody, V domains shown, Humanized BGA50) VH: QVQLVQSGAEVKKPGASVKVSCKASGYSFTGYFLNWVRQAPGQGLEWIGRISPYQGDTFYNQKFKGRVTMTTDKSTSTAYMELRSLRSDDTAVYYCGRSGSFTLFYALDYWGQGTLVTVSS VL: DIVMTQSPSSLAVSLGERATINCKSSQSLFHSGNQKNYLAWYQQKPGQSPKLLIYWASTRESGVPDRFSGSGSGTDFTLTISSLQAEDVAVYYCQQYYSYPITFGQGTKLEIK | ~1 | ~0.01 | ~0.007 | 0.103 | 0.000486 | 4.71e+06 |  |  |  |  |  | 
3 | BGA503 (antibody, V domains shown, Humanized BGA50) VH: QVQLVQSGAEVKKPGASVKVSCKASGYSFTGYFLNWVRQAPGQGLEWIGRISPYQGDTFYNQKFKGRVTMTVDKSTSTAYMELRSLRSDDTAVYYCGRSGSFTLFYALDYWGQGTLVTVSS VL: DIVMTQSPSSLAVSLGERATINCKSSQSLFHSGNQKNYLAWYQQKPGQSPKLLIYWASTRESGVPDRFSGSGSGTDFTLTISSLQAEDVAVYYCQQYYSYPITFGQGTKLEIK | ~0.8 | ~0.01 | ~0.007 | 0.12 | 0.000438 | 3.66e+06 |  |  |  |  |  | 
4 | BGA501 (antibody, V domains shown, Humanized BGA50; also called BGA501-WT) VH: QVQLVQSGAEVKKPGASVKVSCKASGYSFTGYFLNWVRQAPGQGLEWIGRISPYQGDTFYNQKFKGRVTMTTDKSTSTAYMELRSLRSDDTAVYYCGRSGSFTLFYAIDYWGQGTLVTVSS VL: DIVMTQSPSSLAVSLGERATINCKSSQSLFHSGNQKNYLAWYQQKPGQSPKLLIYWASTRESGVPDRFSGSGSGTDFTLTISSLQAEDVAVYYCQQYYSYPITFGQGTKLEIK | ~1 | ~0.01 | ~0.01 | 0.136 | 0.000436 | 3.21e+06 |  |  |  |  |  | 
5 | BGA121 (antibody, V domains shown, Humanized BGA12) VH: QVQLVQSGAEVKKPGASVKVSCKASGYTFTDYAMHWVRQAPGQSLEWMGVVLTHNDNTNYNQKFKARVTMTVDTSASTAYMELSSLRSEDTAVYYCAREVYYDFDDGNYFPMDYWGQGTLVTVSS VL: not shown |  |  |  |  |  |  | ~0.007 | 0.0524 | 0.00122 | 2.33e+07 | ~0.6 | 
6 | BGA122 (antibody, V domains shown, Humanized BGA12; also called BGA122-WT) VH: QVQLVQSGAEVKKPGASVKVSCKASGYTFTDYAMHWVRQAPGQSLEWMGVVLTHNDNTNYNQKFKARVTMTVDTSASTAYMELSSLRSEDTAVYYCAREVYYDFDDGNYFPMDYWGQGTLVTVSS VL: not shown |  |  |  |  |  |  | ~0.007 | 0.0488 | 0.00199 | 4.09e+07 | ~0.6 | 
7 | BGA12 (antibody, V domains shown) VH: QVQLQQSGPEVVRPGVSVKISCKGSGYTFTDYAMHWVKQSHGKSLEWIGVVLTHNDNTNYNQKFKAKATMTVDRSSSTAYMELARLTSEDSAIYYCAREVYYDFDDGNYFPMDYWGQGTSVTVSS VL: DIVMSQSPSSLAVSVGEKVTMSCKSSQSLLYSDNQKNYLAWYQQKPGQSPKLLIYWASTRESGVPVRFTGSGSGTDFTLTISSVKAEDLAVYYCQQYYSYHTFGGGTKLEIK |  |  |  |  |  |  | ~0.007 | 0.0684 | 0.00157 | 2.29e+07 | ~0.6 | Kd [11]: 0.0684 nM; koff [11]: 0.00157 s⁻¹; kon [11]: 2.29e+07 M⁻¹ s⁻¹; IC50 (hPVRIG-ECD-his [12]): 0.15 nM; PVRIG/PVRL2 blocking Emax (% Inhibition) (hPVRIG-ECD-his [12]): 91.9%; EC50 [13]: 0.126 nM; EC50 [14]: 0.05 nM; binding Emax (MFI) [14]: 1180 MFI
8 | BGA50 (antibody, V domains shown, also called BGA50-WT) VH: EVQLQQSGPEPVKPGASVKISCKASGYSFTGYFLNWVKQSHGKSLEWIGRISPYNGDTFYNQKFKGKATLTVDKSSSTAHMELLSLTSEDSAVYYCGRSGSFTLFYAMDYWGQGTSVTVSS VL: DIVMSQSPSSLAVSVGENITMTCKSSQSLFHSGNQKNYLAWYQQKPGQSPKLLIYWASTRESGVPDRFTGSGSETDFTLTISSVKAEDLAVYFCQQYYSYPITFGAGTKLELK | ~1 | ~0.03 | ~0.02 | 0.0907 | 0.000519 | 5.72e+06 |  |  |  |  |  | Kd [11]: 0.147 nM; koff [11]: 0.000652 s⁻¹; kon [11]: 4.45e+06 M⁻¹ s⁻¹; IC50 (hPVRIG-ECD-his [12]): 1.09 nM; PVRIG/PVRL2 blocking Emax (% Inhibition) (hPVRIG-ECD-his [12]): 95.3%; EC50 [13]: 0.105 nM; EC50 [14]: 0.273 nM; binding Emax (MFI) [14]: 2610 MFI
